Source: the supplement of paper PMC5998384

What was measured:
HeLa Kyoto [1] = assay: solubility in G1/S (NP-40 vs SDS abundance) (log2 ratio); higher = more soluble; conditions: cell cycle stage: G1/S
HeLa Kyoto [2] = assay: melting temperature (median over replicates), in situ; higher = more thermally stable
HeLa Kyoto [3] = assay: solubility change mitosis vs G1/S (difference of NP-40 vs SDS log2 ratios) (log2 ratio difference); higher = more soluble in mitosis
HeLa Kyoto [4] = assay: thermal stability score vs G1/S (z-score of summed log2 fold changes over temperatures); higher = more thermally stable than in G1/S
[5] = cell cycle stage: early G1 (4.5 h after nocodazole release)
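Wherever melting temperature (median over replicates), in situ is given: HeLa Kyoto cells synchronized by double thymidine or nocodazole block, proteins quantified by TMT10plex mass spectrometry, three independent biological replicates.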
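Wherever solubility change mitosis vs G1/S (difference of NP-40 vs SDS log2 ratios) is given: synchronized HeLa Kyoto cells (double thymidine block for G1/S, nocodazole release for mitosis), protein amounts in NP-40 versus SDS lysates quantified by mass spectrometry, three biological replicates.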
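Wherever solubility in G1/S (NP-40 vs SDS abundance) is given: HeLa Kyoto cells arrested at G1/S by double thymidine block, proteins quantified by TMT10plex mass spectrometry in mild NP-40 versus SDS extracts, three biological replicates.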
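Wherever thermal stability score vs G1/S (z-score of summed log2 fold changes over temperatures) is given: synchronized HeLa Kyoto cells, proteins quantified by TMT10plex mass spectrometry, three biological replicates, mitosis taken 0.5 h after nocodazole release, G1/S directly after double thymidine block.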

| Substance | solubility in G1/S (log2) (HeLa Kyoto [1]) | melting temperature (HeLa Kyoto [2]; cell cycle stage: G1/S) | melting temperature (HeLa Kyoto [2]; cell cycle stage: mitosis) | solubility change mitosis (log2) (HeLa Kyoto [3]) | thermal stability score (HeLa Kyoto [4]; [5]) | thermal stability score (HeLa Kyoto [4]; cell cycle stage: mitosis) |
| --- | --- | --- | --- | --- | --- | --- |
| MMDIYVCLKRPSWMVDNKRMRTASNFQWLLSTFILLYLMNQVNSQKKGAPHDLKCVTNNLQVWNCSWKAPSGTGRGTDYEVCIENRSRSCYQLEKTSIKIPALSHGDYEITINSLHDFGSSTSKFTLNEQNVSLIPDTPEILNLSADFSTSTLYLKWNDRGSVFPHRSNVIWEIKVLRKESMELVKLVTHNTTLNGKDTLHHWSWASDMPLECAIHFVEIRCYIDNLHFSGLEEWSDWSPVKNISWIPDSQTKVFPQDKVILVGSDITFCCVSQEKVLSALIGHTNCPLIHLDGENVAIKIRNISVSASSGTNVVFTTEDNIFGTVIFAGYPPDTPQQLNCETHDLKEIICSWNPGRVTALVGPRATSYTLVESFSGKYVRLKRAEAPTNESYQLLFQMLPNQEIYNFTLNAHNPLGRSQSTILVNITEKVYPHTPTSFKVKDINSTAVKLSWHLPGNFAKINFLCEIEIKKSNSVQEQRNVTIKGVENSSYLVALDKLNPYTLYTFRIRCSTETFWKWSKWSNKKQHLTTEASPSKGPDTWREWSSDGKNLIIYWKPLPINEANGKILSYNVSCSSDEETQSLSEIPDPQHKAEIRLDKNDYIISVVAKNSVGSSPPSKIASMEIPNDDLKIEQVVGMGKGILLTWHYDPNMTCDYVIKWCNSSRSEPCLMDWRKVPSNSTETVIESDEFRPGIRYNFFLYGCRNQGYQLLRSMIGYIEELAPIVAPNFTVEDTSADSILVKWEDIPVEELRGFLRGYLFYFGKGERDTSKMRVLESGRSDIKVKNITDISQKTLRIADLQGKTSYHLVLRAYTDGGVGPEKSMYVVTKENSVGLIIAILIPVAVAVIVGVVTSILCYRKREWIKETFYPDIPNPENCKALQFQKSVCEGSSALKTLEMNPCTPNNVEVLETRSAFPKIEDTEIISPVAERPEDRSDAEPENHVVVSYCPPIIEEEIPNPAADEAGGTAQVIYIDVQSMYQPQAKPEEEQENDPVGGAGYKPQMHLPINSTVEDIAAEEDLDKTAGYRPQANVNTWNLVSPDSPRSIDSNSEIVSFGSPCSINSRQFLIPPKDEDSPKSNGGGWSFTNFFQNKPND [LIFR] | 0.206 | 54.8 °C | 55.1 °C | -0.094 | -3.21 | -1.95 |
| MMEEEELEFVEELEAVLQLTPEVQLAIEQVFPSQDPLDRADFNAVEYINTLFPTEQSLANIDEVVNKIRLKIRRLDDNIRTVVRGQTNVGQDGRQALEEAQKAIQQLFGKIKDIKDKAEKSEQMVKEITRDIKQLDHAKRHLTTSITTLNHLHMLAGGVDSLEAMTRRRQYGEVANLLQGVMNVLEHFHKYMGIPQIRQLSERVKAAQTELGQQILADFEEAFPSQGTKRPGGPSNVLRDACLVANILDPRIKQEIIKKFIKQHLSEYLVLFQENQDVAWLDKIDRRYAWIKRQLVDYEEKYGRMFPREWCMAERIAVEFCHVTRAELAKIMRTRAKEIEVKLLLFAIQRTTNFEGFLAKRFSGCTLTDGTLKKLESPPPSTNPFLEDEPTPEMEELATEKGDLDQPKKPKAPDNPFHGIVSKCFEPHLYVYIESQDKNLGELIDRFVADFKAQGPPKPNTDEGGAVLPSCADLFVYYKKCMVQCSQLSTGEPMIALTTIFQKYLREYAWKILSGNLPKTTTSSGGLTISSLLKEKEGSEVAKFTLEELCLICNILSTAEYCLATTQQLEEKLKEKVDVSLIERINLTGEMDTFSTVISSSIQLLVQDLDAACDPALTAMSKMQWQNVEHVGDQSPYVTSVILHIKQNVPIIRDNLASTRKYFTQFCVKFANSFIPKFITHLFKCKPISMVGAEQLLLDTHSLKMVLLDLPSISSQVVRKAPASYTKIVVKGMTRAEMILKVVMAPHEPLVVFVDNYIKLLTDCNTETFQKILDMKGLKRSEQSSMLELLRQRLPAPPSGAESSGSLSLTAPTPEQESSRIRKLEKLIKKRL [VPS53] | 0.196 | 50 °C | 49.7 °C | -0.136 | 0.237 | 1.04 |
| MMFYRLLSIVGRQRASPGWQNWSSARNSTSAAEARSMALPTQAQVVICGGGITGTSVAYHLSKMGWKDIVLLEQGRLAAGSTRFCAGILSTARHLTIEQKMADYSNKLYYQLEQETGIQTGYTRTGSIFLAQTQDRLISLKRINAGLNVIGIPSEIISPKKVAELHHLLNVHDLVGAMHVPEDAVVSSADVALALASAASQNGVQIYDRTSVLHVMVKKGQVTGVETDKGQIECQYFVNCAGQWAYELGLSNEEPVSIPLHACEHFYLLTRPLETPLQSSTPTIVDADGRIYIRNWQGGILSGGFEKNPKPIFTEGKNQLEIQNLQEDWDHFEPLLSSLLRRMPELETLEIMKLVNCPETFTPDMRCIMGESPAVQGYFVLAGMNSAGLSFGGGAGKYLAEWMVHGYPSENVWELDLKRFGALQSSRTFLRHRVMEVMPLMYDLKVPRWDFQTGRQLRTSPLYDRLDAQGARWMEKHGFERPKYFVPPDKDLLALEQSKTFYKPDWFDIVESEVKCCKEAVCVIDMSSFTKFEITSTGDQALEVLQYLFSNDLDVPVGHIVHTGMLNEGGGYENDCSIARLNKRSFFMISPTDQQVHCWAWLKKHMPKDSNLLLEDVTWKYTALNLIGPRAVDVLSELSYAPMTPDHFPSLFCKEMSVGYANGIRVMSMTHTGEPGFMLYIPIEYALHVYNEVMSVGQKYGIRNAGYYALRSLRIEKFFAFWGQDINNLTTPLECGRESRVKLEKGMDFIGRDALLQQKQNGVYKRLTMFILDDHDSDLDLWPWWGEPIYRNGQYVGKTTSSAYSYSLERHVCLGFVHNFSEDTGEEQVVTADFINRGEYEIDIAGYRFQAKAKLYPVASLFTQKRRKDDMELSDLHGK [PDPR] | -0.175 | 53.6 °C | 53.7 °C | -0.203 | -1.29 | -1.55 |
| MMGRSPGFAMQHIVGVPHVLVRRGLLGRDLFMTRTLCSPGPSQPGEKRPEEVALGLHHRLPALGRALGHSIQQRATSTAKTWWDRYEEFVGLNEVREAQGKVTEAEKVFMVARGLVREAREDLEVHQAKLKEVRDRLDRVSREDSQYLELATLEHRMLQEEKRLRTAYLRAEDSEREKFSLFSAAVRESHEKERTRAERTKNWSLIGSVLGALIGVAGSTYVNRVRLQELKALLLEAQKGPVSLQEAIREQASSYSRQQRDLHNLMVDLRGLVHAAGPGQDSGSQAGSPPTRDRDVDVLSAALKEQLSHSRQVHSCLEGLREQLDGLEKTCSQMAGVVQLVKSAAHPGLVEPADGAMPSFLLEQGSMILALSDTEQRLEAQVNRNTIYSTLVTCVTFVATLPVLYMLFKAS [CCDC51] | 0.273 | 53.5 °C | 52.7 °C | -0.0792 | 0.333 | 0.178 |
| MMHFKSGLELTELQNMTVPEDDNISNDSNDFTEVENGQINSKFISDRESRRSLTNSHLEKKKCDEYIPGTTSLGMSVFNLSNAIMGSGILGLAFALANTGILLFLVLLTSVTLLSIYSINLLLICSKETGCMVYEKLGEQVFGTTGKFVIFGATSLQNTGAMLSYLFIVKNELPSAIKFLMGKEETFSAWYVDGRVLVVIVTFGIILPLCLLKNLGYLGYTSGFSLSCMVFFLIVVIYKKFQIPCIVPELNSTISANSTNADTCTPKYVTFNSKTVYALPTIAFAFVCHPSVLPIYSELKDRSQKKMQMVSNISFFAMFVMYFLTAIFGYLTFYDNVQSDLLHKYQSKDDILILTVRLAVIVAVILTVPVLFFTVRSSLFELAKKTKFNLCRHTVVTCILLVVINLLVIFIPSMKDIFGVVGVTSANMLIFILPSSLYLKITDQDGDKGTQRIWAALFLGLGVLFSLVSIPLVIYDWACSSSSDEGH [SLC38A1] | -0.379 | 57.8 °C | 59.4 °C | -0.24 | -1.68 | -3.89 |
| MMIHGFQSSHRDFCFGPWKLTASKTHIMKSADVEKLADELHMPSLPEMMFGDNVLRIQHGSGFGIEFNATDALRCVNNYQGMLKVACAEEWQESRTEGEHSKEVIKPYDWTYTTDYKGTLLGESLKLKVVPTTDHIDTEKLKAREQIKFFEEVLLFEDELHDHGVSSLSVKIRVMPSSFFLLLRFFLRIDGVLIRMNDTRLYHEADKTYMLREYTSRESKISSLMHVPPSLFTEPNEISQYLPIKEAVCEKLIFPERIDPNPADSQKSTQVE [TIPRL] | 0.0228 | 50.8 °C | 51.3 °C | -0.0696 | -0.544 | -1.01 |
| MMKFRFRRQGADPQREKLKQELFAFNKTVEHGFPNQPSALAFDPELRIMAIGTRSGAVKIYGAPGVEFTGLHRDAATVTQMHFLTGQGRLLSLLDDSSLHLWEIVHHNGCAHLEEALSFQLPSRPGFDGASAPLSLTRVTVVLLVAASDIAALGTEGSSVFFLDVTTLTLLEGQTLAPGEVLRSVPDDYRCGKALGPVESLQGHLRDPTKILIGYSRGLLVIWNQASQCVDHIFLGNQQLESLCWGRDSSTVVSSHSDGSYAVWSVDAGSFPTLQPTVATTPYGPFPCKAINKILWRNCESGGHFIIFSGGMPRASYGDRHCVSVLRAETLVTLDFTSRIIDFFTVHSTRPEDEFDDPQALAVLLEEELVVLDLQTPGWPAVPAPYLAPLHSSAITCSAHVASVPAKLWARIVSAGEQQSPQPVSSALSWPITGGRNLAQEPSQRGLLLTGHEDGTVRFWDASGVALRPLYKLSTAGLFQTDCEHADSLAQAAEDDWPPFRKVGCFDPYSDDPRLGVQKVALCKYTAQMVVAGTAGQVLVLELSDVPVEQAVSVAIIDLLQDREGFTWKGHERLSPRTGPLPWPAGFQPRVLVQCLPPAAVTAVTLHTEWSLVAFGTSHGFGLFDYQRKSPVLARCTLHPNDSLAMEGPLSRVKSLKKSLRQSFRRIRKSRVSGKKRAANASSKLQEANAQLAEQACPHDVEMTPVQRRIEPRSADDSLSGVVRCLYFADTFLRDGAHHGPTMWAGTNSGSVFAYALEVPAAAVGGEKRPEQAVEAVLGKEVQLMHRAPVVAIAVLDGRGRPLPEPYEASRDLAQAPDMQGGHAVLIASEEQFKVFTLPKVSAKTKFKLTAHEGCRVRKVALATFASVACEDYAETCLACLTNLGDVHVFSVPGLRPQVHYSCIRKEDISGIASCVFTRHGQGFYLISPSEFERFSLSARNITEPLCSLDINWPRDATQASYRIRESPKLSQANGTPSILLAPQSLDGSPDPAHSMGPDTPEPPEAALSPMSIDSATSADTTLDTTGDVTVEDVKDFLGSSEESEKNLRNLAEDEAHACAILIK [LLGL1] | 0.0124 | 50.9 °C | 49.7 °C | -0.209 | -0.436 | -0.753 |
| MMLGPEGGEGFVVKLRGLPWSCSVEDVQNFLSDCTIHDGAAGVHFIYTREGRQSGEAFVELGSEDDVKMALKKDRESMGHRYIEVFKSHRTEMDWVLKHSGPNSADSANDGFVRLRGLPFGCTKEEIVQFFSGLEIVPNGITLPVDPEGKITGEAFVQFASQELAEKALGKHKERIGHRYIEVFKSSQEEVRSYSDPPLKFMSVQRPGPYDRPGTARRYIGIVKQAGLERMRPGAYSTGYGGYEEYSGLSDGYGFTTDLFGRDLSYCLSGMYDHRYGDSEFTVQSTTGHCVHMRGLPYKATENDIYNFFSPLNPVRVHIEIGPDGRVTGEADVEFATHEEAVAAMSKDRANMQHRYIELFLNSTTGASNGAYSSQVMQGMGVSAAQATYSGLESQSVSGCYGAGYSGQNSMGGYD [HNRNPF] | -0.0868 | 48 °C | 49 °C | -0.0538 | 3.58 | 9.17 |
| MMLSTEGREGFVVKVRGLPWSCSADEVMRFFSDCKIQNGTSGIRFIYTREGRPSGEAFVELESEEEVKLALKKDRETMGHRYVEVFKSNSVEMDWVLKHTGPNSPDTANDGFVRLRGLPFGCSKEEIVQFFSGLEIVPNGMTLPVDFQGRSTGEAFVQFASQEIAEKALKKHKERIGHRYIEIFKSSRAEVRTHYDPPRKLMAMQRPGPYDRPGAGRGYNSIGRGAGFERMRRGAYGGGYGGYDDYGGYNDGYGFGSDRFGRDLNYCFSGMSDHRYGDGGSSFQSTTGHCVHMRGLPYRATENDIYNFFSPLNPMRVHIEIGPDGRVTGEADVEFATHEDAVAAMAKDKANMQHRYVELFLNSTAGTSGGAYDHSYVELFLNSTAGASGGAYGSQMMGGMGLSNQSSYGGPASQQLSGGYGGGYGGQSSMSGYDQVLQENSSDYQSNLA [HNRNPH2] | -0.272 | 45 °C | 45.2 °C | -0.0078 | 1.83 | 2.38 |
| MMP15 | -0.181 | 54.4 °C | 55.3 °C | -0.0164 | -0.0989 | -0.65 |
